From the Immune Epitope Database (IEDB)
pKd: −log10 of the molar value. Each block holds one sequence with its values, some of them ahead of it.

Key:
HLA-B*07:02 = test: IEDB peptide-MHC binding, purified MHC/direct/fluorescence; filed as Kd, often an IC50 or EC50 that approximates it; ≥ and ≤ were set here for values at or beyond the usual limits of such assays
HLA-B*44:02 = test: as above
HLA-A*26:01 [1] = test: as above
HLA-B*46:01 = test: as above
HLA-A*03:01 = test: as above
HLA-A*01:01 = test: as above
HLA-B*15:01 = test: as above
HLA-A*11:01 = test: as above
HLA-B*15:02 = test: as above
HLA-B*35:01 [2] = test: as above
HLA-B*58:01 [3] = test: as above
HLA-B*40:01 = test: as above
HLA-A*69:01 [4] = test: as above
HLA-A*31:01 = test: as above
HLA-B*08:01 [5] = test: as above
HLA-A*02:01 [6] = test: as above
HLA-B*48:01 = test: IEDB peptide-MHC binding, purified MHC/competitive/fluorescence; filed as Kd, often an IC50 or EC50 that approximates it; ≥ and ≤ were set here for values at or beyond the usual limits of such assays
HLA-A*02:16 = test: IEDB peptide-MHC binding, purified MHC/direct/fluorescence; filed as Kd, often an IC50 or EC50 that approximates it; ≥ and ≤ were set here for values at or beyond the usual limits of such assays; conditions: source organism: Zaire ebolavirus
HLA-A*68:02 = test: as above; conditions: source organism: Zaire ebolavirus
HLA-A*02:03 = test: as above; conditions: source organism: Zaire ebolavirus
HLA-C*14:02 [7] = test: as above
HLA-A*02:19 = test: as above; conditions: source organism: Zaire ebolavirus
HLA-A*02:12 = test: as above; conditions: source organism: Zaire ebolavirus
HLA-A*26:01 [8] = test: IEDB peptide-MHC binding, purified MHC/competitive/fluorescence; filed as Kd, often an IC50 or EC50 that approximates it; ≥ and ≤ were set here for values at or beyond the usual limits of such assays; conditions: source organism: Zaire ebolavirus
HLA-B*35:01 [9] = test: as above
HLA-A*69:01 [10] = test: as above; conditions: source organism: Zaire ebolavirus
HLA-B*27:03 = test: as above; conditions: source organism: Zaire ebolavirus
HLA-A*02:01 [11] = test: as above; conditions: source organism: Zaire ebolavirus
HLA-B*39:01 = test: as above; conditions: source organism: Zaire ebolavirus
HLA-B*27:05 = test: IEDB peptide-MHC binding, purified MHC/direct/fluorescence; filed as Kd, often an IC50 or EC50 that approximates it; ≥ and ≤ were set here for values at or beyond the usual limits of such assays
HLA-C*05:01 = test: as above; conditions: source organism: Salmonella enterica subsp. enterica serovar Typhi str. CT18
HLA-B*51:01 = test: IEDB peptide-MHC binding, purified MHC/competitive/fluorescence; filed as Kd, often an IC50 or EC50 that approximates it; ≥ and ≤ were set here for values at or beyond the usual limits of such assays; conditions: source organism: Salmonella enterica subsp. enterica serovar Typhi
HLA-A*68:23 = test: as above
HLA-B*45:06 = test: as above
HLA-B*08:01 [12] = test: as above; conditions: source organism: Salmonella enterica subsp. enterica serovar Typhi
HLA-B*83:01 = test: as above
HLA-B*15:42 = test: as above
HLA-C*06:02 = test: IEDB peptide-MHC binding, purified MHC/direct/fluorescence; filed as Kd, often an IC50 or EC50 that approximates it; ≥ and ≤ were set here for values at or beyond the usual limits of such assays; conditions: source organism: Entamoeba histolytica HM-1:IMSS
HLA-C*15:02 = test: as above; conditions: source organism: Entamoeba histolytica HM-1:IMSS
HLA-A*32:07 = test: IEDB peptide-MHC binding, purified MHC/competitive/fluorescence; filed as Kd, often an IC50 or EC50 that approximates it; ≥ and ≤ were set here for values at or beyond the usual limits of such assays
HLA-B*40:13 = test: as above
HLA-A*32:15 = test: as above
HLA-C*14:02 [13] = test: as above; conditions: source organism: Yersinia pestis Nepal516
HLA-B*58:01 [14] = test: as above; conditions: source organism: Yersinia pestis Nepal516
[15] = source organism: Yersinia pestis Antiqua
[16] = source organism: Yersinia pestis
[17] = source organism: Entamoeba histolytica HM-1:IMSS
[18] = source organism: Zaire ebolavirus
[19] = source organism: Vibrio vulnificus
[20] = source organism: Salmonella enterica subsp. enterica serovar Typhi
[21] = source organism: Escherichia coli O157:H7
[22] = source organism: Escherichia coli
[23] = source organism: Yersinia pestis Nepal516

Sequence: FQLYSDLAH
pKd (HLA-B*07:02; [15]): ≤ 4.70
pKd (HLA-B*44:02; [15]): ≤ 4.70
pKd (HLA-A*26:01 [1]; [15]): ≤ 4.70
pKd (HLA-B*46:01; [15]): 5.64
pKd (HLA-A*03:01; [15]): ≤ 4.70
pKd (HLA-A*01:01; [15]): ≤ 4.70
pKd (HLA-B*15:01; [16]): 7.17
pKd (HLA-A*11:01; [15]): ≤ 4.70
pKd (HLA-B*15:02; [15]): 7.59
pKd (HLA-B*35:01 [2]; [16]): 6.07
pKd (HLA-B*58:01 [3]; [15]): ≤ 4.70
pKd (HLA-B*40:01; [15]): ≤ 4.70
pKd (HLA-A*69:01 [4]; [15]): ≤ 4.70
pKd (HLA-A*31:01; [15]): ≤ 4.70
pKd (HLA-B*08:01 [5]; [15]): ≤ 4.70
pKd (HLA-A*02:01 [6]; [16]): 5.72

Sequence: KEFNGPAML
pKd (HLA-B*48:01; [17]): 6.36

Sequence: KVYWAGIEF
pKd (HLA-A*02:16): ≤ 4.70
pKd (HLA-A*68:02): ≤ 4.70
pKd (HLA-B*15:01; source organism: Ebola virus - Gabon (1994-1997)): 6.88
pKd (HLA-A*02:03): ≤ 4.70
pKd (HLA-C*14:02 [7]; [18]): 7.74
pKd (HLA-A*02:19): ≤ 4.70
pKd (HLA-A*02:12): ≤ 4.70
pKd (HLA-A*26:01 [8]): ≤ 4.70
pKd (HLA-B*35:01 [9]; [18]): 6.95
pKd (HLA-A*69:01 [10]): ≤ 4.70
pKd (HLA-B*27:03): ≤ 4.70
pKd (HLA-A*02:01 [11]): ≤ 4.70
pKd (HLA-B*39:01): ≤ 4.70

Sequence: LLTQSNAGF
pKd (HLA-B*07:02; [19]): ≤ 4.70
pKd (HLA-B*44:02; [19]): ≤ 4.70
pKd (HLA-A*26:01 [1]; [19]): ≤ 4.70
pKd (HLA-B*46:01; [19]): ≤ 4.70
pKd (HLA-A*03:01; [19]): ≤ 4.70
pKd (HLA-A*01:01; [19]): ≤ 4.70
pKd (HLA-B*15:01; [19]): 6.84
pKd (HLA-A*11:01; [19]): ≤ 4.70
pKd (HLA-B*15:02; source organism: Vibrio vulnificus CMCP6): 7.31
pKd (HLA-B*35:01 [2]; [19]): 6.46
pKd (HLA-B*27:05; [19]): ≤ 4.70
pKd (HLA-B*40:01; [19]): ≤ 4.70
pKd (HLA-A*69:01 [4]; [19]): ≤ 4.70
pKd (HLA-A*31:01; [19]): ≤ 4.70
pKd (HLA-B*08:01 [5]; [19]): ≤ 4.70

Sequence: MPFIATPPV
pKd (HLA-C*05:01): ≤ 4.70
pKd (HLA-B*51:01): 6.25
pKd (HLA-A*68:23; [20]): 8.68
pKd (HLA-B*35:01 [9]; [20]): ≥ 10.00
pKd (HLA-B*45:06; [20]): ≤ 5.30
pKd (HLA-B*08:01 [12]): 5.84
pKd (HLA-B*83:01; [20]): 7.20
pKd (HLA-B*15:42; [20]): ≤ 5.30

Sequence: RQQAIVDLL
pKd (HLA-B*48:01; source organism: Shigella flexneri 5 str. 8401): 6.82

Sequence: SMFERDFHF
pKd (HLA-C*14:02 [7]; [17]): 5.49
pKd (HLA-C*06:02): 5.76
pKd (HLA-C*15:02): ≤ 4.70
pKd (HLA-A*69:01 [4]; [17]): ≤ 5.30
pKd (HLA-A*02:01 [6]; [17]): 8.40
pKd (HLA-A*32:07; [17]): 8.03
pKd (HLA-B*40:13; [17]): 8.55
pKd (HLA-A*32:15; [17]): 7.50
pKd (HLA-B*45:06; [17]): ≤ 5.30
pKd (HLA-B*83:01; [17]): ≤ 5.30
pKd (HLA-B*15:42; [17]): ≤ 5.30

pKd (HLA-B*07:02; [21]): ≤ 4.70
pKd (HLA-B*44:02; [21]): ≤ 4.70
pKd (HLA-A*26:01 [1]; [21]): ≤ 4.70
pKd (HLA-B*46:01; [21]): ≤ 4.70
pKd (HLA-A*03:01; [21]): ≤ 4.70
pKd (HLA-A*01:01; [22]): 6.55
pKd (HLA-B*15:01; [22]): 6.86
pKd (HLA-A*11:01; [21]): ≤ 4.70
pKd (HLA-B*15:02; [21]): 8.03
pKd (HLA-B*35:01 [2]; [22]): 6.49
pKd (HLA-B*27:05; [21]): ≤ 4.70
pKd (HLA-B*58:01 [3]; [21]): ≤ 4.70
pKd (HLA-B*40:01; [21]): ≤ 4.70
pKd (HLA-A*69:01 [4]; [21]): ≤ 4.70
pKd (HLA-A*31:01; [21]): ≤ 4.70
pKd (HLA-B*08:01 [5]; [21]): ≤ 4.70
pKd (HLA-A*02:01 [6]; [21]): ≤ 4.70
Sequence: YLGTPNNTY

Sequence: YSLMSRYQF
pKd (HLA-A*32:07; [23]): 7.59
pKd (HLA-A*68:23; [23]): 7.53
pKd (HLA-B*40:13; [23]): 7.88
pKd (HLA-A*32:15; [23]): 7.24
pKd (HLA-C*14:02 [13]): 7.37
pKd (HLA-B*58:01 [14]): 7.79
pKd (HLA-B*45:06; [23]): ≤ 5.30
pKd (HLA-B*83:01; [23]): ≤ 5.30
pKd (HLA-B*15:42; [23]): ≤ 5.30
